These results are taken from PMC4894640.

The target in the experiment is F-actin (polymerized non-muscle actin) (UniProt P60709). The experiment can be described thus: co-sedimentation; as the F-actin co-sedimentation, with in vitro synthesized HA-RAB-10(Q68L) (control: HA-only) added to the mixture.

For “GST-EHBP-1(260-901aa) (domain or fragment)”, the increase of co-sedimentation with HA-RAB-10(Q68L) against without was found to be 67%.
